# From US20210102195A1
# How the values were obtained:
# [1] = target: human CD3 epsilon (human) (UniProt P07766); assay: flow cytometry (MFI), titration 0.05-100 nM on Jurkat cells (2901)
# [2] = target: human CD3 epsilon (human) (UniProt P07766); assay: flow cytometry (MFI), titration 0.05-100 nM on CD8+ T cells (2903)
# [3] = target: human CD3 epsilon (human) (UniProt P07766); assay: flow cytometry (MFI), titration 0.05-100 nM; cells not named on the panel, the same value stands for CD8+ T-Cell in FIG. 29F
# [4] = target: human CD3 epsilon (human) (UniProt P07766); assay: biosensor sensorgrams with fits, instrument not named in Example 14; antigen not printed on the panel: taken as human CD3 epsilon because 28G-28I and 28J-28L repeat the same three spots (57, 169, 205) and the text gives 67 nM (28G) for human and 107 nM (28J) for cyno
# cyno CD3 epsilon (cyno) = cyno CD3 epsilon (cyno) (UniProt Q95LI5); assay: biosensor sensorgrams with fits, instrument not named in Example 14; antigen not printed on the panel: taken as cyno CD3 epsilon because 28G-28I and 28J-28L repeat the same three spots (57, 169, 205) and the text gives 67 nM (28G) for human and 107 nM (28J) for cyno
# Chain of cyno CD3 epsilon (cyno) (Q95LI5 22-117 limits assumed): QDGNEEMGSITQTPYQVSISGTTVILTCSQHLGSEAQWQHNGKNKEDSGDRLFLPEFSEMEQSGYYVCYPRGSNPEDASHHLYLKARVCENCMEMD
# Chain of human CD3 epsilon (human) (P07766 23-126 limits assumed): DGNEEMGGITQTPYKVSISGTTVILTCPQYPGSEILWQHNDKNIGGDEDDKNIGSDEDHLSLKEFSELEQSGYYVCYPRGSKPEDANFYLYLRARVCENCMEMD
Substance,EC50 [1] [nM],EC50 [2] [nM],EC50 [3] [nM],Kd [4] [nM],Kd (cyno CD3 epsilon (cyno)) [nM]
R&D MAB100 (antibody),0.537,3.05,3.05,–,–
muSP34 (antibody),–,–,–,< 0.0019,38
